Measured values as given in the RNAGym collection of RNA variant scans (doi:10.1073/pnas.2313332121).

B1: TPR t1 (parent)
chain: GACCAAUCUGCCCUCAGAGCUCGAGAACAUCUUCGGAUGCAGAGGAGGCAGGCUUCGGUGGCGCGAUAGCGCCAACGUCCUCAACCUCCAAUGCAUCCCACCACAUGAUGAUGCCUGAAGAGCCUUGGUUUUUUG

Variants of: B1
Experiment: polymerase ribozyme fitness, log enrichment relative to wild type (log ratio); higher = more active; in vitro selection for triplet polymerase activity
Method in brief: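 The heterodimeric triplet polymerase ribozyme's subunits were each mutagenized into PCR-built libraries and transcribed. Every library was selected once, in triplicate, by annealing with a biotinylated primer, the partner subunit and triplets, incubating frozen at −7 °C, gel-excising extended constructs, capturing on streptavidin beads and running RT-PCR. Input and output libraries were Illumina-sequenced, with genotypes kept only at ≥10 input reads and ≥1 read per output. Fitness, from inverse-variance-weighted replicate averages, is the base-2 logarithm of genotype enrichment over wild-type enrichment.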
With G57A C80U the “polymerase ribozyme fitness (log ratio)” value was -1.38.
With C34U G120A the “polymerase ribozyme fitness (log ratio)” value was -3.93.
In the case of C53U C64U A83G, the “polymerase ribozyme fitness (log ratio)” value is reported as -0.811.
With G17A G44A the “polymerase ribozyme fitness (log ratio)” value was -3.41.
For C8U C49G U106A G110A, the “polymerase ribozyme fitness (log ratio)” value was -1.48.
In the case of C12G G107U, the “polymerase ribozyme fitness (log ratio)” value is reported as -5.64.
With C15U G35A A66U U109A U116A the “polymerase ribozyme fitness (log ratio)” value was -5.44.
For U38G G57U C62A A91U C97A G117A G120C, the “polymerase ribozyme fitness (log ratio)” value was -7.34.
For C11A U30G A37C U112C, the “polymerase ribozyme fitness (log ratio)” value was -5.59.
For C40G G117U, the “polymerase ribozyme fitness (log ratio)” value was -3.26.
For C12U C28U U78A A100C G113A, the “polymerase ribozyme fitness (log ratio)” value was -3.61.
With G44U C64G C101G A121U the “polymerase ribozyme fitness (log ratio)” value was -6.22.
In the case of A26U G63A, the “polymerase ribozyme fitness (log ratio)” value is reported as -5.09.
With U9C G42A the “polymerase ribozyme fitness (log ratio)” value was -1.15.
With U7C A27G C62U G63A the “polymerase ribozyme fitness (log ratio)” value was -2.76.
For C15U G60U C123U, the “polymerase ribozyme fitness (log ratio)” value was -0.514.
For A18G G113U, the “polymerase ribozyme fitness (log ratio)” value was -4.5.
In the case of C56U G117C, the “polymerase ribozyme fitness (log ratio)” value is reported as -3.64.
With C49G C62U A90U G113U the “polymerase ribozyme fitness (log ratio)” value was -4.27.
With G10U C40G G48U C102U the “polymerase ribozyme fitness (log ratio)” value was -3.36.
With C20U C70G the “polymerase ribozyme fitness (log ratio)” value was -3.54.
In the case of C28U A84G A90C G113C, the “polymerase ribozyme fitness (log ratio)” value is reported as -5.73.
In the case of G10U U32G C102U C124U U126G, the “polymerase ribozyme fitness (log ratio)” value is reported as -7.39.
For A46U G71A C72G A119G, the “polymerase ribozyme fitness (log ratio)” value was -1.69.
With G45A G71C the “polymerase ribozyme fitness (log ratio)” value was -1.76.
In the case of C11G C22U G61C A83G, the “polymerase ribozyme fitness (log ratio)” value is reported as -6.84.
For C64U A95G C115G, the “polymerase ribozyme fitness (log ratio)” value was -2.07.
With A50G C53G G60U C72U C101A the “polymerase ribozyme fitness (log ratio)” value was -3.8.
With G10A C15G C82A G93A the “polymerase ribozyme fitness (log ratio)” value was -4.03.
In the case of C20A A26G U33A, the “polymerase ribozyme fitness (log ratio)” value is reported as -5.24.
In the case of C4U C72U G117C, the “polymerase ribozyme fitness (log ratio)” value is reported as -4.14.
For C56A C73U C88U U126G, the “polymerase ribozyme fitness (log ratio)” value was -3.16.
For C8G C20U C40G A90U C102U, the “polymerase ribozyme fitness (log ratio)” value was -6.69.
For U59C U81C U106A, the “polymerase ribozyme fitness (log ratio)” value was -0.294.
With U9G G71A C80U C98U G110U the “polymerase ribozyme fitness (log ratio)” value was -6.92.
With G10A C64U the “polymerase ribozyme fitness (log ratio)” value was -0.954.
With G77A C97U the “polymerase ribozyme fitness (log ratio)” value was -0.317.
With C72U C76A the “polymerase ribozyme fitness (log ratio)” value was -0.968.
In the case of G61C G77C C79U, the “polymerase ribozyme fitness (log ratio)” value is reported as -0.228.
In the case of C11G G36A G127A, the “polymerase ribozyme fitness (log ratio)” value is reported as -2.95.
For U116G C123U G128A, the “polymerase ribozyme fitness (log ratio)” value was -5.61.
With U7G C13G C40U the “polymerase ribozyme fitness (log ratio)” value was 0.145.
For G58C U59G C70A C86G, the “polymerase ribozyme fitness (log ratio)” value was -2.75.
With C28U G39A U54C C79A the “polymerase ribozyme fitness (log ratio)” value was -4.8.
For G36U G58C C89A A91C C115U, the “polymerase ribozyme fitness (log ratio)” value was -4.15.
For C12A G48U G71C, the “polymerase ribozyme fitness (log ratio)” value was -1.56.
In the case of G71C A118U C124G, the “polymerase ribozyme fitness (log ratio)” value is reported as 0.835.
For C13G C56G C72G C88A G110C, the “polymerase ribozyme fitness (log ratio)” value was -6.47.
For A6G G61C C89U, the “polymerase ribozyme fitness (log ratio)” value was -2.67.
In the case of C28G G60A C79G, the “polymerase ribozyme fitness (log ratio)” value is reported as -4.94.
For C99U, the “polymerase ribozyme fitness (log ratio)” value was -3.02.
For C64U A90U, the “polymerase ribozyme fitness (log ratio)” value was -0.99.
With C94A A118U the “polymerase ribozyme fitness (log ratio)” value was -0.204.
With C12G A46U C49A the “polymerase ribozyme fitness (log ratio)” value was -1.36.
In the case of G52A G61A G127U, the “polymerase ribozyme fitness (log ratio)” value is reported as -1.95.
In the case of A27U U54G U116A C124A G127A, the “polymerase ribozyme fitness (log ratio)” value is reported as -3.59.
For G69C G93C, the “polymerase ribozyme fitness (log ratio)” value was -3.05.
With A50U C82U the “polymerase ribozyme fitness (log ratio)” value was -1.15.
In the case of G63C A75U, the “polymerase ribozyme fitness (log ratio)” value is reported as -0.329.
For C62A G122U, the “polymerase ribozyme fitness (log ratio)” value was 0.143.
With C62A G122A the “polymerase ribozyme fitness (log ratio)” value was -1.85.
In the case of A18C C22G G63A U130G, the “polymerase ribozyme fitness (log ratio)” value is reported as -5.14.
For C12A G110U, the “polymerase ribozyme fitness (log ratio)” value was -1.4.
For A18C G71C A121C C123U C124U, the “polymerase ribozyme fitness (log ratio)” value was -3.96.
In the case of U59G C80A A121C, the “polymerase ribozyme fitness (log ratio)” value is reported as -0.276.
With U30A G39C C49A the “polymerase ribozyme fitness (log ratio)” value was -5.37.
With G110C C123G the “polymerase ribozyme fitness (log ratio)” value was -4.09.
For C15A G47U C73A C115A A121C U133C, the “polymerase ribozyme fitness (log ratio)” value was -5.41.
With G61U U78C C88U U130G the “polymerase ribozyme fitness (log ratio)” value was -0.822.
With C28G C56G the “polymerase ribozyme fitness (log ratio)” value was -3.01.
In the case of C34G C72G U96C A103U C124A, the “polymerase ribozyme fitness (log ratio)” value is reported as -7.14.
In the case of U14C U132C, the “polymerase ribozyme fitness (log ratio)” value is reported as -1.36.
For C4A C72A C114U C124A, the “polymerase ribozyme fitness (log ratio)” value was -2.33.
With C31G C72U A95C G113A the “polymerase ribozyme fitness (log ratio)” value was -6.94.
With G57A U116G the “polymerase ribozyme fitness (log ratio)” value was -3.51.
For U7G G10A C49U U112G G135U, the “polymerase ribozyme fitness (log ratio)” value was -0.92.
In the case of C12U A66U C123A, the “polymerase ribozyme fitness (log ratio)” value is reported as 0.936.
With G17U U87A U106A G128A the “polymerase ribozyme fitness (log ratio)” value was -3.83.
In the case of U9C U92A, the “polymerase ribozyme fitness (log ratio)” value is reported as -1.27.
With G63C C73U the “polymerase ribozyme fitness (log ratio)” value was -0.69.
For G71A C99U U106C, the “polymerase ribozyme fitness (log ratio)” value was -5.44.
For C72A C80A A90G U125A, the “polymerase ribozyme fitness (log ratio)” value was -3.65.
For G63A U116C C123U, the “polymerase ribozyme fitness (log ratio)” value was -4.18.
In the case of C12A G36C U55G C72U U96G, the “polymerase ribozyme fitness (log ratio)” value is reported as -4.76.
